One substance from US20160213760A1 can be followed below.

The test deals with human epidermal growth factor 2 (HER2)/neu receptor (human) (UniProt P04626). The test is described as follows: cell-based or functional assay.

With “protein conjugate H43 (ANG4043; trastuzumab conjugated to Angiopep-2) (antibody)”, the IC50 of BT-474 cell proliferation (tritiated thymidine incorporation after 5-day treatment) came to 3.16 nM.
